From US20240301039A1 (NEW YORK UNIVERSITY IN ABU DHABI, published 2024)

T1: SARS-CoV-2 C14S,C23S,C73S NSP9 (triSer-Nsp9) (SARS-CoV-2, UniProt P0DTC1 4141-4253)
T1 construct: also called NSP (dissolved in ammonium acetate); INS (dissolved in DMSO/PBS)
T1 chain: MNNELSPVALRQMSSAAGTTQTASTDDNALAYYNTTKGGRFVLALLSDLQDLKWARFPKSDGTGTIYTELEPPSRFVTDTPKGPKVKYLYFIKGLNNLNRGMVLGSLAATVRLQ

T2: SARS-CoV-2 C14S,C23S,C73S NSP9 (triSer-NSP9) (SARS-CoV-2, UniProt P0DTC1 4141-4253)
T2 construct: also called NSP (dissolved in ammonium acetate); INS (dissolved in DMSO and diluted in PBS)
T2 chain: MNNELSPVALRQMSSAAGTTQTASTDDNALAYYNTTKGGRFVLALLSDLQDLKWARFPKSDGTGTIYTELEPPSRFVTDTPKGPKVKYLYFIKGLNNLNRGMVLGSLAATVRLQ


Assays:
[1] = target: T1, SARS-CoV-2 C14S,C23S,C73S NSP9 …; test: ELISA signal on INS over uncoated blocked blank
[2] = target: T1, SARS-CoV-2 C14S,C23S,C73S NSP9 …; test: ELISA signal on NSP over uncoated blocked blank
[3] = target: T1, SARS-CoV-2 C14S,C23S,C73S NSP9 …; test: ELISA, periplasmic extract; Nsp9 in DMSO/PBS (INS) coated
[4] = target: T1, SARS-CoV-2 C14S,C23S,C73S NSP9 …; test: ELISA, periplasmic extract; Nsp9 in ammonium acetate (NSP) coated
[5] = target: T2, SARS-CoV-2 C14S,C23S,C73S NSP9 …; test: ELISA signal on INS over uncoated blocked well
[6] = target: T2, SARS-CoV-2 C14S,C23S,C73S NSP9 …; test: ELISA signal on NSP over uncoated blocked well

Binder	INS/control [1]	NSP/control [2]	ELISA INS [3]	ELISA NSP [4]	INS/control [5]	NSP/control [6]
2INS61 (VHH) VHH: QVQLQESGGGLVQAGGSLRLSCAASGSIFSINTMGWYRQAPGKQRELVAAITSGGSTNYADSVKGRFTISRDNAKNTVHLQMNSLKPEDTAVYYCNVVEGWGPPVGYWGQGTQVTVSS	2.75	8.02	1.84	5.36	–	–
3INS39 (VHH) VHH: QVQLQESGGGLVQAGGSLRVSCEVSGIMFGINTMGWYRQAPGKQRELVAHITSSGSTNYADSVKGRFTISRDNAKKTVYLQMNSLKPEDTAVYYCNVVAGWGPPPGYWGQGTQVTVSS	2.7	4.42	2.49	4.07	–	–
2INS69 (VHH) VHH: QVQLQESGGGLVRAGDSLRLSCAVSGRTFSSVAMGWFRQAPGKEREFVAFISGSTGSVTYYADSVKGRFAISRDNAKNTVYLQMNSLKPEDTAVYDCAAKFTGTFNYQGLYDYWGQGTQVTVSS	–	–	–	–	14.1	13.8
3NSP29 (VHH) VHH: QVQLQESGGGLVQAGGSLRLSCAASGRTFSRYAMGWFRQAPGKERESVAAINWSGTSIFYANSVEGRFTISRDNAKNTVYLQLNSLKPEDTAVYYCGVVLNGMPYWGRGTQVTVSS	–	–	–	–	1.84	3.85
3NSP56 (VHH) VHH: QVQLQESGGGLVQAGGSLRLSCAASGRTFSRYAMGWFRQAPGKERESVAAINWSGTSIFYANSVEGRFTISRDNAKNTVYLQLNSLKPEDTAVYYCAADLVRNYRLGWGDGVYDHYGQGTQVTVSS	–	–	–	–	2.61	5.47
2NSP90 (VHH) VHH: QVQLQESGGGLVQTGDSLRLSCAVSGRTFSTYSVGWFRQAPGKEREFVALRWSGGTTYYADSVVGRFTVSRDNAKNTVYLEMNSLKPEDTAVYYCAADRGSGSYSPTYRWDYWGQGTQVTVSS	21	50.8	1.98	4.78	–	–
3NSP52 (VHH) VHH: QVQLQESGGGLVQPEGSLRLSCAASGLTFDSYAIGWFRQAPGKEREFVAASIWSGDSGHYTGSVKGRFTISRDNAKNTVDLQMNSLKPEDTAVYYCAASASFLHSANYHMRAKWGYWGQGTQVTVSS	23.6	34.2	2	2.91	–	–
2INS27 (VHH) VHH: QVQLQESGGGLVQAGGSLRLSCATSGSIFSSAVMGWYRQAPGNERELVALIGSSDTTDYSNSVKGRFTISRDNAKNTAYLRMNSLKPEDTAVYYCTAVKYGLGGFVYWGQGTQVTVSS	31.3	28.9	3	2.77	–	–
2INS64 (VHH) VHH: QVQLQESGGGLVQVGGSLRLSCAASGSILSINAMGWYRQAPGKQRELVAAITSGGSTNYADSVKGRFTISRDNAKNMLYLQMNSLKPEDTAVYYCHVVTGWGPLDWGQGTQVTVSS	–	–	–	–	26.7	45.2
3NSP78 (VHH) VHH: QVQLQESGGGLVQAGGSLRLSCAASGRAFSSYVMGWFRQAPGKEREFVAAIHWTGAATVYVDSVKGRFAISRHNAKNTVYLEMNSLKPEDTAVYYCAADPSGSYWPPKRYDYWGQGTQVTVSS	–	–	–	–	28.6	47.2
2INS45 (VHH) VHH: QVQLQESGGGLVQAGGSLRLSCAASGFTLSSNDMGWYRQAPGKQRELVATITSGLSTNYADSVKGRFTISRDNAKNTVFLQMNSLKIEDTAVYYCEVERGWGPPRDYWGHGTQVTVSS	–	–	–	–	26.9	45
2NSP23 (VHH) VHH: QVQLQESGGGLVQPGGSLRLSCAASGLAFSMYTMGWFRQAPGKEREFVAMIISSGDSTDYADSVKGRFTISRDNGKNTVYLQMDSLKPEDTAVYYCAAPKFRYYFSTSPGDFDSWGQGTQVTVSS	16.8	41.8	1.72	4.28	–	–
